Measured values reported in patent publication US20240052042A1 (Novartis, published 2024).

T1: rNPR1-ANP complex (rat, UniProt P01160 124-151 (human entry), limits assumed)
T1 construct: rNPR1 antigen in the presence of ANP; also called rNPR1 + 100 nM ANP
T1 sequence: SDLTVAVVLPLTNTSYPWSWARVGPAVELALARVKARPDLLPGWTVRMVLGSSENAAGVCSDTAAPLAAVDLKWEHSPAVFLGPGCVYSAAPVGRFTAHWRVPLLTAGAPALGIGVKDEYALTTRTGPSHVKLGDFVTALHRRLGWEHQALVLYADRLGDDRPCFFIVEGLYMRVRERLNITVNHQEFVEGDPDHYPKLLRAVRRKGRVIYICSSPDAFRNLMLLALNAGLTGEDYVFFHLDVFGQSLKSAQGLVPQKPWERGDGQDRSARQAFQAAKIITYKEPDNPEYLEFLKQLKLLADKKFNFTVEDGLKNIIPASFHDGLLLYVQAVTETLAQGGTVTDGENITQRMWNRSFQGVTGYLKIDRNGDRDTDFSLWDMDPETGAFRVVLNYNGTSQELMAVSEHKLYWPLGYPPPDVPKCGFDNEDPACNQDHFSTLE
T1 sequence (peptide): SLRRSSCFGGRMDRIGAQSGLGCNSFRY

T2: human Natriuretic Peptide Receptor 1 (hNPR1) (human, UniProt P16066 33-473, limits assumed)
T2 construct: pannings used NPR1-hFc; also called NPR1-hFc
T2 sequence: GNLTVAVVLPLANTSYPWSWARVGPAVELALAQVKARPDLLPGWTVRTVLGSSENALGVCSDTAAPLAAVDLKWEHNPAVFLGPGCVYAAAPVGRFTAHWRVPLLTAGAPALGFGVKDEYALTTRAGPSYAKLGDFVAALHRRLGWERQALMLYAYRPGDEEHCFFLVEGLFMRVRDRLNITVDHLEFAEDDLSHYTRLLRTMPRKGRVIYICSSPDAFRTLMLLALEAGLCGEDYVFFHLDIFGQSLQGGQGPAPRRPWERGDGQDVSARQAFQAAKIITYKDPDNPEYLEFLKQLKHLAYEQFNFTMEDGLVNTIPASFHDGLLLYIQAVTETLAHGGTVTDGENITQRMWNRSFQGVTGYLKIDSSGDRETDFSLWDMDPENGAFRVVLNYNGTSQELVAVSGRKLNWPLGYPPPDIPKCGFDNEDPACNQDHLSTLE

T3: rNPR1-ANP complex (rat)
T3 sequence: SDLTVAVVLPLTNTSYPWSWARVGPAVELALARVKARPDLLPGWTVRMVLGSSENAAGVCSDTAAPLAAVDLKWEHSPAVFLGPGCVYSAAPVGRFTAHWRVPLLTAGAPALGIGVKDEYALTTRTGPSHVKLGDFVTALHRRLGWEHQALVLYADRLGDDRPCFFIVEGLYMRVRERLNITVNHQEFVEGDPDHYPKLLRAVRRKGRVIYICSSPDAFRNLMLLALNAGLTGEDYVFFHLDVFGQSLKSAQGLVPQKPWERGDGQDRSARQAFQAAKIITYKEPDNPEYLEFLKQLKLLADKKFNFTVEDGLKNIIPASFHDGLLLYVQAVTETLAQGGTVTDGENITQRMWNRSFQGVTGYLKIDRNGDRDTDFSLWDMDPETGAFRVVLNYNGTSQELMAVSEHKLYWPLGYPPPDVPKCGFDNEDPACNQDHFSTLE
T3 sequence (peptide): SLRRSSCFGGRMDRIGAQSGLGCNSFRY


What was measured:
[1] = molecular target: T1, rNPR1-ANP complex; assay: ELISA, 1 µM IgG; set-up: unit not given here
[2] = molecular target: W74R hNPR1 mutant in the presence of ANP (human) (UniProt P01160); assay: ELISA, IgG titrated on coated antigen with ANP (250 fold molar excess), fluorescence [Cont.]
[3] = molecular target: T2, human Natriuretic Peptide Receptor 1 …; assay: FRET ANP competition assay: IgG titrated on NPR1, Eu-labeled donor, Cy5-labeled ANP as the competed ligand [Cont.]
Description: The same 31 IgGs were tested for ANP competition using a Fluorescence Resonance Energy Transfer (FRET)-based assay in which the NPR1-specific antibodies competed with ANP for binding to NPR1. In this FRET based assay (see FIG. 3), Eu-labeled Streptavidin (for measurement of IgGs) or Eu-labeled anti-hFc antibody (for measurement of FabCys) was used as an energy donor, while Cy5-labeled ANP was used as an acceptor (for all measurements). The resulting fluorescent signal was decreased by ANP-competitive antibodies. The assay was performed as follows: antibodies were mixed with NPR1 and incubated for 5 minutes at room temperature. After addition of the Eu-labeled donor and incubation for 30 minutes at room temperature, the Cy5-ANP solution was added. After a further 60-minute incubation, readout was performed using a TECAN Infinite M1000 Pro using an excitation wavelength of 317 nm and an emission wavelength of 665 nm. Percentage of ANP competition was calculated according to the following formulae: […]
All 92 FabCys and 24 IgGs were tested for binding to relevant antigens via ELISA and relevant cell lines by flow cytometry. […] Eight functional candidates were identified and analyzed for specificity in the Protein Panel Profiling assay (3P assay) in IgG format. For comparison, one of the functional candidates from the initial campaign (WW03) was analyzed. […]

[4] = molecular target: T3, rNPR1-ANP complex (rat); assay: ELISA, 1 µM IgG

Binder | ELISA binding at 1 µM IgG [1] | EC50 (read off the curve) [2] [nM] | IC50 (read off the curve) [3] [nM] | ELISA binding at 1 µM IgG [4]
YY07 (IgG format) (antibody, V domains shown, also called YY07_LALA) VH: EVQLVQSGAEVKKPGESLKISCKGSGYSFTSYWISWVRQMPGKGLEWMGIIYPGTSYTRYSPSFQGQVTISADKSISTAYLQWSSLKASDTAMYYCARGSLPGLLGFDHWGQGTLVTVSS VL: QSVLTQPPSVSGAPGQRVTISCTGSSSNIGAGYDVHWYQQLPGTAPKLLIYGNSNRPNGVPDRFSGSKSGTSASLAITGLQAEDEADYYCQSYDSPTSSSVFGGGTKLTVLG | 3 |  |  | 
YY06 (IgG format) (antibody, V domains shown, also called YY06_LALA) VH: EVQLLESGGGLVQPGGSLRLSCAASGFTFSSYAISWVRQAPGKGLEWVSAISGSGGSTYYAESVKGRFTISRDNSKNTLYLQMNSLRAEDTAVYYCARPYLGDRRSYGFDHWGQGTLVTVSS VL: QSALTQPASVSGSPGQSITISCTGTSSDVGSYNLVSWYQQHPGKAPKLMIYEGSKRPSGVSNRFSGSKSGNTASLTISGLQAEDEADYYCSSYGFHIVVVVFGGGTKLTVLG |  | 20 | ~4 | 4
